The values below come from article PMC4125095, “Arabidopsis miR171-Targeted Scarecrow-Like Proteins Bind to GT cis-Elements and Mediate Gibberellin-Regulated Chlorophyll Biosynthesis under Light Conditions”.

For data set [1], the target named is T1, SCL27 (His-SCL27) (Arabidopsis thaliana) (UniProt Q7XJM8).
T1 sequence: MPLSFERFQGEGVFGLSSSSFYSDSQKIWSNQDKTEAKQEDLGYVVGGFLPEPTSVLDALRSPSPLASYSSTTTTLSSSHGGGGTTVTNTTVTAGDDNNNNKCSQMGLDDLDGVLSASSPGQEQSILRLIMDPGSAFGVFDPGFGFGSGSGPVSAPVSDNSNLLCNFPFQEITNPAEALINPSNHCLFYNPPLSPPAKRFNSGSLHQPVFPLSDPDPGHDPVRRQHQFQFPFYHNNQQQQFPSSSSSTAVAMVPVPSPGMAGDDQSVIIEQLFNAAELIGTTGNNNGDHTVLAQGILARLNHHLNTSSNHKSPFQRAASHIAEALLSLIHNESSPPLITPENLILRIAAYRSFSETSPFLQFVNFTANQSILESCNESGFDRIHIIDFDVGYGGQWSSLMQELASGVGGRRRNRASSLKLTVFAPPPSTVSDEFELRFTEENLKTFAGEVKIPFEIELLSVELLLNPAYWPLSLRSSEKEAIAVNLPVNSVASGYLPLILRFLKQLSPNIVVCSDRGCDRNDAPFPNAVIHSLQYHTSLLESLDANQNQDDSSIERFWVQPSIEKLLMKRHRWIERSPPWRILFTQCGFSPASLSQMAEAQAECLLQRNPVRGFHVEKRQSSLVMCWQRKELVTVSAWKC
The experiment in a line: EMSA. Conditions: 1 nM Cy5-DNA, 20 uL binding buffer (composition not given, ref 60), 30 C 20 min; 6% native PAGE, 0.5x TBE, 4 C.

Another data set deals with T2, SCL27 (His-SCL27) (Arabidopsis thaliana, UniProt Q7XJM8 1-640).
T2 sequence: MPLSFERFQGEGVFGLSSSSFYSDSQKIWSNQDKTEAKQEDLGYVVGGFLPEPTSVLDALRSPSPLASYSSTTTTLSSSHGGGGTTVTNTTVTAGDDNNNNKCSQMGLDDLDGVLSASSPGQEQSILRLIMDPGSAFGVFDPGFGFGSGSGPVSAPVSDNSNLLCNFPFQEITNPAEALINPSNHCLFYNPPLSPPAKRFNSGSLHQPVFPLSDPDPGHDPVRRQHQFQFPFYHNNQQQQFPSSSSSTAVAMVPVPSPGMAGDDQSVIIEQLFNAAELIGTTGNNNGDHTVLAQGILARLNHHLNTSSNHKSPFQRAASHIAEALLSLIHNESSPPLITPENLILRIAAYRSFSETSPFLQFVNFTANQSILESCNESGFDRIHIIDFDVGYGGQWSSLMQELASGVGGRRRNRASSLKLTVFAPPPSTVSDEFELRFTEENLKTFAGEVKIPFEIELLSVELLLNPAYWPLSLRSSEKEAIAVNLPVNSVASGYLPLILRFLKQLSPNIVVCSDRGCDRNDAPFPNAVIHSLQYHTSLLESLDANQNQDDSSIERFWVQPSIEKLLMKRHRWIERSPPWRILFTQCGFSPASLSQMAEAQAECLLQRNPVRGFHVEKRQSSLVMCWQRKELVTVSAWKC
In words: EMSA; 1 nM probe; 1 nM Cy5-DNA, 20 uL binding buffer (composition not given, ref 60), 30 C 20 min; 6% native PAGE, 0.5x TBE, 4 C. Conditions: protein: recombinant, tags: His (pET28b).

Take “AGCCAGTGGCGATAAGCCTGTTATAGGCATATGAACAAGACAATGGAGGAGGAGGAGGAGATGGTCTAGAAACCGTGACGACGGAGGAGGAAAAGAAAAGAGATGAAGTAGAAGAAGAAAATAAAATAAAATAGAGGCAAAAATGGAAATTTTCATTGGAATTTTGCAACTTTTAGAAATTGTAGAAGATGAAGAGAGCTGTGTGATCCAAAAGTGCTTATCGCCACTGGCT (double strand) [PORC promoter fragment III]”: the binding result in data set [1] is listed as “binds”.
Still for that read-out and setting: for “AGCCAGTGGCGATAAGGATTAAAGAAACGGGTGGAATACACAAGAACAATGTATATGCAAGATTGCAGTGGTGTCGTTGATTACTCTCAATTTGATGATAAGATTCAAATTTGATATGAGTTTGGAGAAGAAGAAGATGACGAAGAGATCATTACTTGGCGATGAGACGAACAAGCAGGAAAGTATTGCCTACGCTTCCTGAACTTCATGAGATGCTTATCGCCACTGGCT (double strand) [PORC promoter fragment I]” the value was “no binding”.

B1: M (62-bp mutated GT element fragment) (dsDNA)
DNA 1: CCCGGGGAAAAGAGATGAAGTAGAAGAACCCGGGAAAATAAAATAGAGGCAAAAATCCCGGG
DNA 2: CCCGGGATTTTTGCCTCTATTTTATTTTCCCGGGTTCTTCTACTTCATCTCTTTTCCCCGGG
For the molecule B1, the binding result in the data set with SCL27 (His-SCL27) was “no binding”.

B2: W (62-bp GT element fragment) (dsDNA)
DNA 1: GGAAAAGAAAAGAGATGAAGTAGAAGAAGAAAATAAAATAAAATAGAGGCAAAAATGGAAAT
DNA 2: ATTTCCATTTTTGCCTCTATTTTATTTTATTTTCTTCTTCTACTTCATCTCTTTTCTTTTCC
Regarding B2, the binding result with SCL27 (His-SCL27) (three G(A/G)(A/T)AA(A/T) GT elements, mutant) is on record as “binds”.
